Measured values as given in publication doi:10.1101/2020.06.11.147496.

Target: LuS-N71-SpyTag (Aquifex aeolicus lumazine synthase nanoparticle with a glycan at N71 and SpyTag at the N-terminus) (Aquifex aeolicus)

SARS-CoV-2 spike-SpyCatcher (prefusion-stabilized SARS-CoV-2 spike trimer fused with a C-terminal SpyCatcher)
percent of nanoparticle subunits conjugated: 91%
